According to publication PMC5925078:

Key:
TNFR1 ECD (Homo sapiens) = TNFR1 ECD (Homo sapiens) (UniProt P19438); test: SPR; conditions: cited from earlier work
TNFR2 ECD (Homo sapiens) = TNFR2 ECD (Homo sapiens) (UniProt P20333); test: SPR; conditions: cited from earlier work
membrane TNF = membrane TNF (UniProt P01375); test: cellular binding study with GpL (luciferase) fusion protein; reciprocal competition; memTNF-expressing HEK293 transfectants incubated 90 min with 100 ng/ml TNFR1ed-GpL or TNFR2ed-GpL, alone or mixed with 2,000 ng/ml sTNF or 2,000 ng/ml PGRNAdi; EV transfectants as non-specific binding

| Substance | Kd (TNFR1 ECD (Homo sapiens)) [nM] | Kd (TNFR2 ECD (Homo sapiens)) [nM] | specific binding, fold over background (the pair that is blocked) (membrane TNF) [fold] |
| --- | --- | --- | --- |
| Progranulin (from UniProt P28799) | 1.77 | 1.52 |  |
| TNFR1ed-GpL (from UniProt P19438 30-211) (receptor) |  |  | > 2000 |
| TNFR2ed-GpL (from UniProt P20333 23-257) (receptor) |  |  | > 200 |
